According to patent US11123413B2, “Carbapenemases for use with antibiotics for the protection of the intestinal microbiome” (priority 2015, dated 2021):
Where “and” joins values, the source holds several entries; their conditions need not be identical. Equal entries are not always repeated.

B1: P2A: broad spectrum carbapenemase, class B metallo-enzyme requiring zinc, SEQ ID NO: 37; P2A-21 = product of strain SYT-PP0602-21 (protein)
chain: ETGTISISQLNKNVWVHTELGYFNGEAVPSNGLVLNTSKGLVLVDSSWDNKLTKELIEMVEKKFQKRVTDVIITHAHADRIGGITALKERGIKAHSTALTAELAKNSGYEEPLGDLQTITSLKFGNTKVETFYPGKGHTEDNIVVWLPQYQILAGGCLVKSAEAKDLGNVADAYVNEWSTSIENVLKRYGNINSVVPGHGEVGDKGLLLHTLDLLK
B2: NDM: New Delhi metallo-β-lactamase NDM-1; NDM-68 = product of strain STY-NP1602-68 (STII Δ35, N-terminal GQQMETG) (protein)
chain: GQQMETGDQRFGDLVFRQLAPNVWQHTSYLDMPGFGAVASNGLIVRDGGRVLVVDTAWTDDQTAQILNWIKQEINLPVALAVVTHAHQDKMGGMDALHAAGIATYANALSNQLAPQEGMVAAQHSLTFAANGWVEPATAPNFGPLKVFYPGPGHTSDNITVGIDGTDIAFGGCLIKDSKAKSLGNLGDADTEHYAASARAFGAAFPKASMIVMSHSAPDSRAAITHTARMADKLR

Experiments:
[1] = Oral P2A and intravenous ceftriaxone in jejunal-fistulated dogs; format: in vivo, laboratory beagles; details: peroral P2A 2.5 mg/kg, intravenous ceftriaxone 30 mg/kg, omeprazole
Description: The ability of P2A to degrade ceftriaxone in the dog intestinal tract was evaluated using laboratory beagles that had permanent jejunal fistulas. The fistulas allowed the repeated collection of jejunal chyme specimens from these animals. Dogs were treated with peroral P2A (2.5 mg/kg) in a liquid formulation (PBS buffer), and/or intravenous ceftriaxone (30 mg/kg). A single dose of omeprazole (10 mg) was delivered orally to each dog prior to treatment with ceftriaxone and/or P2A to inhibit the HCl activity in the stomach to potentially reduce P2A degradation. Serum samples were collected and serum ceftriaxone levels quantified. Jejunal chyme samples were collected and ceftriaxone and P2A levels were quantified. Ceftriaxone levels in serum and chyme were measured using a plate diffusion method using ceftriaxone susceptible Micrococcus luteus TS504 as the test strain. P2A activity levels in chyme were determined spectrophotometrically using meropenem as a substrate. Meropenem hydrolysis was monitored at a wavelength of 297 nm.

[2] = tested on: E. coli (ATCC 25922); experiment: Antibiotic inactivation screening assay via E. coli growth (96 well plate, OD625); format: cell-based; details: 10 ng/ml or 100 ng/ml enzyme (FIG. 35)
[3] = P2A concentration estimate and specific activity in cell lysates (CENTA assay, P2A protein standard); format: biochemical; details: BLR (DE3) P2A Clone 1 lysate, replicates 1 and 2
Description: To achieve an estimate of the amount of P2A protein in each of the lysates, dilutions of the lysates (5 ul, 2.5 ul, 1.3 ul, and 0.63 ul) were evaluated on SDS/PAGE compared to dilutions of a purified P2A standard protein (2.0 ug, 1.0 ug, 0.5 ug, 0.25 ug, 0.13 ug). Based on the P2A protein band intensities, an estimate of the amount of P2A protein in each of the lysates was obtained. The biological activity of the P2A protein in the cell lysates under the different lysing conditions was evaluated using the CENTA chromogenic assay compared to the biological activity of the P2A protein standard. The biological activity was normalized based on the P2A protein concentration estimate and an estimated P2A specific activity was obtained. […] The P2A expression cassette without the leader will be used for future studies.
Based on the P2A protein band intensities, an estimate of the amount of P2A protein in each of the lysates was obtained. The biological activity of the P2A protein in these cell lysates was evaluated using the CENTA chromogenic assay compared to the biological activity of the P2A protein standard. The biological activity was normalized based on the P2A protein concentration estimate and an estimated P2A specific activity was obtained.

[4] = Oral P2A and intravenous ampicillin in jejunal-fistulated dogs; format: in vivo, laboratory beagles; details: peroral P2A 1 mg/kg liquid formulation, intravenous ampicillin 40 mg/kg
Description: The ability of P2A to degrade ampicillin in the dog intestinal tract was evaluated using laboratory beagles that had permanent jejunal fistulas. The fistulas allowed the repeated collection of jejunal chyme specimens from these animals. Dogs were treated with peroral P2A (1 mg/kg) in a liquid formulation (PBS buffer), and/or intravenous ampicillin (40 mg/kg). Serum samples were collected and serum ampicillin levels quantified. Jejunal chyme samples were collected and ampicillin and P2A levels were quantified. Ampicillin levels in serum and chyme were measured using a standard reverse phase HPLC method. P2A activity levels in chyme were determined spectrophotometrically using meropenem as a substrate. Meropenem hydrolysis was monitored at a wavelength of 297 nm.

[5] = KPC and NDM stability in mixed human chyme versus buffer (CENTA); format: in vitro ADME; details: 100 μM ZnSO4, 37° C., 80 ng/mL
Description: The stability of KPC and NDM in human chyme at 37° C. was evaluated by adding purified KPC or NDM (final concentration of 80 ng/mL) to mixed human chyme that contained equal volumes of each of five human chyme specimens collected from five different donors. ZnSO4 was added to the mixed chyme for a final concentration of 100 μM ZnSO4. Aliquots of the enzyme/chyme mixture were collected at 0, 30, 60, 120, 180, and 240 minutes of incubation and evaluated for beta-lactamase activity with a chromogenic assay using the CENTA reagent as the substrate. The biological activity of the enzymes in the mixed chyme was compared to the activity in buffer (HEPES buffer, 100 μM ZnSO4 pH 6.2).

Molecule	ceftriaxone in jejunal chyme [1]	effect on serum levels of ceftriaxone [1]	activity against cephalosporins compared to SYN-004 or P4A [2]	% Activity Compared to P2A standard ([3]; induction 18 o/n)	P2A-lactamase Activity ([3]; induction 18 o/n)	% Activity Compared to P2A standard ([3]; induction 25 on)	P2A-lactamase Activity ([3]; induction 25 on)	% Activity Compared to P2A standard ([3]; induction 37 3 hrs)	P2A-lactamase Activity ([3]; induction 37 3 hrs)	ampicillin in jejunal chyme [4]	effect on serum levels of ampicillin [4]	time by which activity was lost / not detectable [5] [min]
B1	degraded ceftriaxone	does not reduce serum levels of ceftriaxone	not as active against the cephalosporins, cefozolin, cefoperazone, cefepime, and ceftazidime	103% and 156%	0.21 mg/mL and 0.16 mg/mL	148% and 135%	0.30 mg/mL and 0.27 mg/mL	131% and 182%	0.13 mg/mL and 0.18 mg/mL	degraded ampicillin	does not reduce serum levels of ampicillin	
B2												≤ 30
